# From US20230285583A1, “LIQUID FORMULATION OF LONG-ACTING CONJUGATE OF GLUCAGON, GLP-1, AND GIP TRIGONAL AGONIST” (HANMI PHARM, CO., LTD., priority 2020, published 2023)
# Bridge positions count the residues as written; N and C are the ends. Square brackets hold non-standard residues; d marks the D form. Ends that are not written are not given here. * marks the point of attachment. Acetyl(2-(4-imidazolyl)) = O=C(Cc1c[nH]cn1)*; Aib = CC(C)(N)C(=O)O
# Tests used:
# Assay in all cases: cell-based or functional assay
# human GLP-1 receptor = human GLP-1 receptor (human, UniProt P43220 24-463)
# Chain of human GLP-1 receptor (P43220 24-463): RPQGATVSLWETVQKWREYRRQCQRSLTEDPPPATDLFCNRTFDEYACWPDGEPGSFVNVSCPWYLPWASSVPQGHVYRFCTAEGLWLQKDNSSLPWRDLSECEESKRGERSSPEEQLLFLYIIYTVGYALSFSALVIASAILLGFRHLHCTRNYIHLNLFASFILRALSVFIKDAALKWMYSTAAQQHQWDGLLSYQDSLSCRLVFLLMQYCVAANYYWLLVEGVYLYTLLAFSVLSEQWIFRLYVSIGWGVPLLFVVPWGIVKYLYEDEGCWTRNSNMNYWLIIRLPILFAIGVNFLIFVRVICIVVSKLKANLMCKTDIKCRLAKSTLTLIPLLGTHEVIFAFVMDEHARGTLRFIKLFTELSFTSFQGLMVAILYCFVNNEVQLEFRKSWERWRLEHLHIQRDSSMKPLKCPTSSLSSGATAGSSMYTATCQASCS
# human GCG receptor = human GCG receptor (human, UniProt P47871 26-477)
# Chain of human GCG receptor (P47871 26-477): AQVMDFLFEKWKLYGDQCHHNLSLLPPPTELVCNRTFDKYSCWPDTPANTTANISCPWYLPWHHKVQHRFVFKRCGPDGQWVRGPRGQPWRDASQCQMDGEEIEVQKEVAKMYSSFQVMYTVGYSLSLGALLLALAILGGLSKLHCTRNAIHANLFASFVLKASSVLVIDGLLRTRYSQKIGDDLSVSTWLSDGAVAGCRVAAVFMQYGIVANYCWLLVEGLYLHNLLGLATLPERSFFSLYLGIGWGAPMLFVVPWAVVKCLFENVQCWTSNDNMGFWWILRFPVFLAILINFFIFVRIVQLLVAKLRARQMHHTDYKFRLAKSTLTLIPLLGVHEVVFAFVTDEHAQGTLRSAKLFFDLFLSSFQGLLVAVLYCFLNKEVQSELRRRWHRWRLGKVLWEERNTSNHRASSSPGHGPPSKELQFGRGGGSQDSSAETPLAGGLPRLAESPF
# human GIP receptor = target: T1, human GIP receptor (human, UniProt P48546 22-466)
# T1 sequence (looked up): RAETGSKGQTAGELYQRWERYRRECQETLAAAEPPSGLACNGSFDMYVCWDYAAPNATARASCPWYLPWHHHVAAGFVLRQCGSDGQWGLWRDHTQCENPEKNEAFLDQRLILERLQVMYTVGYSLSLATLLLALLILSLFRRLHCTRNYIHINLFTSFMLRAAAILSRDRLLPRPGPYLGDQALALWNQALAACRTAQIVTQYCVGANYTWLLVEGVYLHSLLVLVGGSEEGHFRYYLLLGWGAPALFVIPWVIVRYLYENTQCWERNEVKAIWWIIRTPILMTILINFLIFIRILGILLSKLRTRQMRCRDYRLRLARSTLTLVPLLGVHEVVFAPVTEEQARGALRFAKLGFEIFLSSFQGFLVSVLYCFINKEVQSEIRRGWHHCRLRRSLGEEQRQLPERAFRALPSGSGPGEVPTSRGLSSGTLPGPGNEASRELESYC
Binder,In Vitro Activity Compared to Native Peptide (%) vs. GLP-1 (relative titer from cAMP EC50) (human GLP-1 receptor),In Vitro Activity Compared to Native Peptide (%) vs. Glucagon (relative titer from cAMP EC50) (human GCG receptor),In Vitro Activity Compared to Native Peptide (%) vs. GIP (relative titer from cAMP EC50) (human GIP receptor)
Y[Aib]QGTFTSDYSKYLDEKRAKDFVQWLLDHHPSSGQPPPSC (bridge 16-20; not fully specified (bridges)) [trigonal agonist of SEQ ID NO: 31],10.3%,47.6%,11.7%
[Acetyl(2-(4-imidazolyl))][Aib]QGTFTSDYSKCLDEKRAKEFVQWLLDHHPSSGQPPPS (bridge 16-20; not fully specified (bridges)) [trigonal agonist of SEQ ID NO: 29],12.9%,0.9%,1%
H[Aib]QGTFTSDYSKYLDEKRQKEFVQWLLDTKC (bridge 16-20; not fully specified (bridges)) [trigonal agonist of SEQ ID NO: 33],51%,14%,0.12%
Y[Aib]QGTFTSDYSKYLDEKAAKDFVQWLLDHHPSSGQPPPSC (bridge 16-20; not fully specified (bridges)) [trigonal agonist of SEQ ID NO: 32],38.7%,12.2%,35.5%
Y[Aib]QGTFTSDYSKYLDEKAAKEFVQWLLDHHPSSGQPPPSC (bridge 16-20; not fully specified (bridges)) [trigonal agonist of SEQ ID NO: 30],35.1%,8.5%,18%
